Laboratory results: publication PMC7545097, “Mapping the native interaction surfaces of PREP1 with PBX1 by cross-linking mass-spectrometry and mutagenesis” (Scientific Reports, 2020)
Numbering of substitutions follows the chain as printed. Blank lines part the entries; values can stand above or below the binder they belong to.

How the values were obtained:
Assay in all cases: time-resolved fluorescence immunoassay (TR-FIA); plate coated with monoclonal anti-PBX1; PBX1 pre-incubated with PREP1 or MEIS1 for 1 h on ice, 10 µg/mL in 1% BSA PBS, 1 h at room temperature on the plate; detected with anti-PREP1 or biotinylated anti-MEIS1/2 and Eu^3+ conjugates; normalised to the wild-type protein taken as 1
Conditions in all cases: both partners purified
[1] = target: T1, PBX1 I211A (human, UniProt P40424 1-430, I211A)
T1 construct: PBX1, residues 1-430; source: E. coli, purified
T1 sequence (looked up): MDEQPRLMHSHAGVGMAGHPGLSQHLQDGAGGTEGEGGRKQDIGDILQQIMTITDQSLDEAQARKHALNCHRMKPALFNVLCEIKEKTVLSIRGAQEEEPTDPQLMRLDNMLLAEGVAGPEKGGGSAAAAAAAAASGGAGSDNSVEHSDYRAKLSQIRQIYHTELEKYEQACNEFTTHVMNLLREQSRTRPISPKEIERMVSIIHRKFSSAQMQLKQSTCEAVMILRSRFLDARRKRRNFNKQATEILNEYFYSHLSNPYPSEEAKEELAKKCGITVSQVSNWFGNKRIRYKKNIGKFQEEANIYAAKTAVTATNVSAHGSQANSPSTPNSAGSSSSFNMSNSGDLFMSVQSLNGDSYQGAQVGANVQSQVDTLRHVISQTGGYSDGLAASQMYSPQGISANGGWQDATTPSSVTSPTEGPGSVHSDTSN

[2] = target: T2, PREP1 L67A (UniProt P55347 1-436, L67A)
T2 construct: PREP1 (PKNOX1), residues 1-436
T2 sequence (looked up): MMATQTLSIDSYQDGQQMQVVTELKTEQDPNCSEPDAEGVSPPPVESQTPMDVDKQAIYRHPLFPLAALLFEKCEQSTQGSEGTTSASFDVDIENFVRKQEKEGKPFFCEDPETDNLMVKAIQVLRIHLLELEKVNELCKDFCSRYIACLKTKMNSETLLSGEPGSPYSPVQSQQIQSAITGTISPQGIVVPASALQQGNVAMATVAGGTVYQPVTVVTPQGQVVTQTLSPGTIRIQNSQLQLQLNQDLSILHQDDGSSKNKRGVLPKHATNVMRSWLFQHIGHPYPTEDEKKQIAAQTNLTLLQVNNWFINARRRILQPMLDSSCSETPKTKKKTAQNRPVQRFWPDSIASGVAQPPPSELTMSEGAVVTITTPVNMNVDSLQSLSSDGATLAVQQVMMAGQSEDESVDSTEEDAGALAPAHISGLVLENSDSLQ

[3] = target: T3, PREP1 L69A (UniProt P55347 1-436, L69A)
T3 construct: PREP1 (PKNOX1), residues 1-436
T3 sequence (looked up): T2 sequence (looked up) with A67L, L69A

[4] = target: T4, PREP1 L129A (UniProt P55347 1-436, L129A)
T4 construct: PREP1 (PKNOX1), residues 1-436
T4 sequence (looked up): T2 sequence (looked up) with A67L, L129A

binding relative to wild type [1]: ~65%
B1: PREP1_(1-436), wild-type recombinant (TR-FIA) (natural protein, UniProt P55347 1-436, looked up)
chain: T2 sequence (looked up) with A67L
notes: also called wild-type PREP1; PKNOX1; source: E. coli, purified

binding result [2]: binds
binding result [3]: binds
binding result [4]: binds
B2: PBX1_(1-430), wild-type recombinant (natural protein, human, UniProt P40424 1-430, looked up)
chain: T1 sequence (looked up) with A211I
notes: also called wild-type PBX1; purified recombinant human PBX1; source: E. coli, purified
